In the DeepSol protein solubility set:

assay: soluble on expression in E. coli; label from the status in PepcDB or PDB records

| Sequence | soluble on expression in E. coli |
| --- | --- |
| MSLTKVSSLGYPRLGENREWKKLIEAYWAGKVSKNDLFAGAKELRLDFLKKQLNAGLDLIPVGDFSLYDHILDLSVQFNIIPKRFAKEPIDIDLYFAIARGNKENVASSMKKWFNTNYHYIVPEWSKQRPKLNNNRLLDLYLEAREVVGDKAKPVITGPITYVALSTGVEDFTAAVKSLLPLYKQVFTELVKAGASYIQVDEPIFVTDEGKDYLQAAKAVYAYFAKEVPDAKFIFQTYFEGLIDSQVLSQLPVDAFGLDFVYGLEENLEAIKTGAFKGKEIFAGVIDGRNIWSSDFVKTSALLETIEEQSAALTIQPSCSLLHVPVTTKNETDLDPVLRNGLAFADEKLTEVKRLAEHLDGREDPAYDLHIAHFDALQAADFRNVKLEDLSRVATKRPSDFAKRRDIQQEKLHLPLLPTTTIGSFPQSREIRRTRLAWKRGDISDAEYKQFIQAEIERWIRIQEDLDLDVLVHGEFERVDMVEFFGQKLAGFTTTKFGWVQSYGSRAVKPPIIYGDVQHLEPITVEETVYAQSLTDRPVKGMLTGPITITNWSFERTDIPRDQLFNQIGLAIKDEIKLLENAGIAIIQVDEAALREGLPLRKSKQKAYLDDAVHAFHIATSSVKDETQIHTHMCYSKFDEIIDAIRALDADVISIETSRSHGDIIESFETAVYPLGIGLGVYDIHSPRVPTKEEVVANIERPLRQLSPTQFWVNPDCGLKTRQEPETIAALKVLVAATKEVRQKLGNEGHHHHHH | soluble |
| MNLRGILPFAHDTLRKVVRSGDYVIDATCGNGHDTLLLAELVGVNGHVLGFDIQQMAIDATKTRLENAGVASQVELVCASHALIPEYATKPVRAAIFNLGYLPGGDKEITTTADSTLESIGHLMQLLEVGGVIIIVIYHGHPAGKVEKDAVLTFCEAIPQQDFHVLSYNFINQKNDAPFVIIIEKRKPLEHHHHHH | not soluble |
| MGSDKIHHHHHHMDRIIYTAGSGASQAMQQQSVVNHNLSNVSTPGFRAELDAMRAVPVQGDGRLATRTSVAATTSGTDFSPGYMNATGRRLDVAMQGDAFLAIQDPQGGEAYTRRGDLQVDADGMLTVKGEPVMGEQGPIVVPPDAEFSIGADGSISVLEAGANPDEIAPVGRLKLVTPDLQALTRGDDGWFRLPPGDDAEIAAPQPLDEDARLQSGVLEGSNVSATDAMVAMIDGARRYDMQMKVIESADQNAQRANSLLSVQA | not soluble |
| SLHAAKDEVRSRLMPINRAYNVEKLIEAIQYYQEKTNRRVTFEYGLFGGVNDQLEHARELAHLIKGLNCHVNLIPVNHVPERNYVKTAKNDIFKFEKELKRLGINATIRREQGSDIDAACGQLRAKERQVETR | soluble |
| MSSKMVKSSEIVGKLNLRAHQEGGFFAETFRDSSVFLSTSQLPPTFKVDRAVSTSIYFLLPSGSVSRLHRIPMAETWHFYLGEPLTVVELYDDGKLKFTCLGPDLFEGDQKPQYTVPPNVWFGSFPTKDVHFSQDGALLKAEARDSENHFSLVGCTCAPAFQFEDFELAKRSDLLSRFPQHESLITMLSYPE | soluble |
| MLIPWQDLSPETLENLIESFVLREGTDYGEHERTLEQKVADVKRQLQCGEAVLVWSELHETVNIMPRSQFRE | soluble |
| SNAMENEKILNPIIIQRADPMIYKHNDGYYYFTASVPEYDRIEVRKAKTIEGLRNAEPVDVWRRHESGEMSNLIWAPEIHFINGAWYIYFAAAPDKNIEDDTFNHRMFVIQNENENPFTGNWVEKGRIKTAWESFSLDATIFEHNEKLYYVWAQQDINIKGHSNIYIAEMENPWTLKTKPVMLTKPELEWEIKGFWVNEGPAVLKKNGKIFITYSASATDVNYCIGMLTAEENSNLLDKNSWTKSQTPVFKTSMENHQYGPGHNSFTVSEDGKHDVIVYHARNYTEIKGDPLYDPNRHTRAQIINWREDGTPDFGVPEVDSLEIETPVKA | soluble |
| MSFDADEEILQDFLVEAGEILEQLSEQLVELESRPDDMDLLNAIFRGFHTVKGGAGFLQLNALVECCHIAENVFDILRKGERRVSSELMDVVLQALDTVNAMFDQVREQSEPTPATPELLAALARLAEPEGAEPAEPVQAPPAAVPPAEPAAPPEAPAQSASSDITDDEFEQLLDALQGDEAPASAVAEAPAAPAGDEISDAEFEALLDQLHGKGKFVPPAVSAEPAQVPAEAVEPAAAAAGDDISDDEFEALLDELHGKGKFGDVPEAAGTPAAPAAAAPAAAPAEQGKAPAAAGGDEISDDEFESLLDELHGKGKFNGASEAVAAAAAVAKNIAAKSPAAKPVAPAKAAAARPAAPDRPAASEAETTVRVDTARLDEIMNMVGELVLVRNRLVRLGLNSGDEAMAKAVANLDVVTGDLQMSVMKTRMQPIKKVFGRFPRLVRDLARNMKKEINLELVGEETDLDKNLVEALADPLVHLVRNAVDHGIESPEEREAAGKPRVGQVVLSAEQEGDHILLMITDDGKGMDAEVLRNKAVEKGLLERDAADRLTDLECYNLIFAPGFSTKTEISDVSGRGVGMDVVKTKISQLNGTVNVFSQKGSGSKIVIKVPLTLAIMPTLMVMLGSQAFAFPLVNVNEIFHLDLSRTNVVDGQEVVIVRDKALPLFYLKRWLVPSAAHEEQGEGHVVILSVGTQRIGFVVDQLVGQEEVVIKPLGKMLQGTPGMAGATITGDGRIALILDVPSMLKRYARRI | not soluble |
| MAAADIARQLGEDCRTVPLAGHVGFDSLPDQLVNKSVSQGFCFNILCVGETGLGKSTLMDTLFNTKFEGEPATHTQPGVQLQSNTYDLQESNVGLKLTIVSTVGFGDQINKEDSYKPIVEFIDAQFEAYLQEELKIRRVLHSYHDSRIHVCLYFIAPTGHSLKSLDLVTMKKLDSKVNIIPVIAKSDAISKSELAKFKIKITSELVSNGVQIYQFPTDDESVSEINGTMNAHLPFAVCSTEEVKIGNKMMRARQYPWGTVQVENEAHCDFVKLREMLIRVNMEDLREQTHARHYELYRRCKLEEMGFKDTDPDSKPFSLQETYEAKRNEFLGELQKKEEEMRQMFVQRVKEKEAELKEAEKELHEKFDRLKKLHQEEKKKLEDKKKCLDEEMNAFKQRKAAAELLQSQGSQAGGSQTLKRDKEKKNNPWLCIE | soluble |
| MGSDKIHHHHHHMTNAFKGIPEELLKPHASPCVSIFMPTSRTFPDNTQDPVRFKNLVSRAEADGIAFSTKREMAPLIERLRLLQDDASFWNHTLDGLAVFISPDYFRIFRLQQSVLEQAHVTDAFYIRPLIRIYQIVERFQVLALTRSEVKLYEGTRDHLDEIELAPEVPKTMTDALGTEITPPHMTIASYGGTGTAMRHGHSSRKDEEALDNERFFRAVDQGINEYHSSSSGLPLVLVALPEHQGLFRSISRNQRLVAEGIEIDPAALGLEAMRQKAWQVMEPYRERKIDQMIARFREAEGGKLGSDNPYAIAIAAVAGNVSHLLLDGQKFWPGQIDPVSGDILLDEASQASGRDVFEELGAAVLARGGEVLVLPSERMPSASGVAAIFRHD | not soluble |
| MGSDKIHHHHHHADPFASITHLVDSAMVNKTDSIDREKTSDEPKPIEADESFDDFIYNFASDDALQRQRVVFPLPYYNGERASKIDRKYWKHDDLFAKQSYYTLLFDREEDMDLVGDTSLTSVQVEWIFVKKRMVKKYYFERIKGAWMLEAINLRPIEENENEDFVEFFGHFATDSIFQSRRIRQPLVFVTTDPDDDFSILETTLDLNQWFAFKPALPADKLSNINYGQQNDDNASHKILALKGIGNGFSNILYFQRKDSGWELYKFEDTSI | not soluble |
| RYTNILVPVDSSDAAQAAFTEAVNIAQRHQANLTALYVVDDSAYHTPALDPVLSELLDAEAAHAKDAMRQRQQFVATTSAPNLKTEISYGIPKHTIEDYAKQHPEIDLIVLGATGTNSPHRVAVGSTTSYVVDHAPCNVIVIR | soluble |
| MKCLKPSIGPVRGTDGDWKNIMKQFLRCGLAFAWSSVLGSSIAMDSLFGLPVRSTVKANLGALREGYVNIAVHGHSPLLVSEIVKQGRSREFIQMAKEKGALGIQFYGICCSGLSAMYRYGGVIPLSNAIGAELVLGTGAIDLWVADVQDVFPSIMDVAKCFKTTVVTTSDSARLPGAEHYAYDHHHSNLAQTQELAKTIVKRAIESFEARRDVPVFIPNYEVDAEIGFSVEYATSRFGSMDVIAKALQEGKIRGVVNLVGCNNPRVMYEKAIADVARKLIENNILVLTNGCASFPLLKLGYCNVKALEWTGKELREFLEPDLPPVWHMGECLDNARASAFFRALADSLKKDIKDMPFAFASPEWSNEKGVGAALGFRLLGINSYHSVYPPVQGSKNVMKYLFEDTEKTLGAVMIVEVDPLKLADRIISDIDEKRKALMWK | not soluble |
| MSHQDDYLSVEELIEIQKEETRDIIQALLEDGSDPDALYEIEHHLFAEDFDKLEKAAVEAFKMGFEVLEAEETEDEDGNKLLCFDATMQSALDAKLIDEQVEKLVNLAEKFDIIYDGWGTYYEGLEHHHHHH | soluble |
